Earlier results in PMC8808565 (iScience, 2022).

Test system: ACE2

B1: human defensin 5 (protein, UniProt Q01523 20-94, looked up)
Defensin alpha 5: ESLQERADEATTQKQSGEDNQDLAISFAGNGLSALRTSGSQARATCYCRTGRCATRESLSGVCEISGRLYRLCCR
modifications: Defensin-5
Which “target (in words)” value does the source give for B1 here?
Its value is “target ACE2”.
